Assay results from patent US9296811B2, “Methods for treating a tumor using an antibody that specifically binds HMW-MAA” (University of Pittsburgh—Of the Commonwealth System of …, priority 2010, dated 2016).
Entries after “also recorded” stand apart in the source; their conditions may differ.

Columns and labels:
[1] = tested on: melanoma cell lines (Colo38, M21, SK-MEL-37, MV3, 1520); assay: MTT cell growth assay, vemurafenib and C21; assay type: cell-based, human
V600E mutated BRAF = V600E mutated BRAF (Homo sapiens, UniProt P15056, V600E); settings: cited from earlier work
V600E mutated BRAF, sequence (P15056 whole entry V600E): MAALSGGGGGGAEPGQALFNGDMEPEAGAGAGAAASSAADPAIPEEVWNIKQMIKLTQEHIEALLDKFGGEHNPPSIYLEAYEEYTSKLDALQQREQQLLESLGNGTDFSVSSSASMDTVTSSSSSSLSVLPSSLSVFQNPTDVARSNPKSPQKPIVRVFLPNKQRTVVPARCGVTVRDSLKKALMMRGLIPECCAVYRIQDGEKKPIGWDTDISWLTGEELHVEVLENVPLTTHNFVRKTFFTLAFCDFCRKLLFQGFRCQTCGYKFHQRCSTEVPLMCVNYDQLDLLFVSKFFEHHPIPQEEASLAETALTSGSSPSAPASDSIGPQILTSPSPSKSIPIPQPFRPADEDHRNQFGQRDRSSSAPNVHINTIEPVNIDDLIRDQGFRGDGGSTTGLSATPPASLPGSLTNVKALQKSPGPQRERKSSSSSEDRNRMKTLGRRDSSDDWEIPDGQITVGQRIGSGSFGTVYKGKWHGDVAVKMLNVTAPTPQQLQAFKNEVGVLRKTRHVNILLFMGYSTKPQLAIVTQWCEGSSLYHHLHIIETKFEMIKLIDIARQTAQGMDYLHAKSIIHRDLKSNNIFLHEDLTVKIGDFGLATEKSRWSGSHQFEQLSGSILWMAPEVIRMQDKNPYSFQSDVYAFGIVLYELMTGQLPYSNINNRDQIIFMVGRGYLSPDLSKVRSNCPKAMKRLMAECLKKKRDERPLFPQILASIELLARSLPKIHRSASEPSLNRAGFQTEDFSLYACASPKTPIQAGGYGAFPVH

[2] = tested on: normal human organ tissues; assay: IHC staining of normal human organ tissue microarray with C21 (cross-reactivity); assay type: binding; settings: for IHC Result: normal human tissue, C21 4 μg/mL
[3] = tested on: human melanocytic lesions; assay: Immunohistochemical staining of frozen sections of human melanocytic lesions with C21; assay type: binding; settings: benign pigmented nevus, primary melanoma, metastatic melanoma
Text: FIG. 6A-6F. Digital images of immunohistochemical staining of frozen sections of human melanocytic lesions with C21.

CSPG4 = biological target: T1, CSPG4 (Homo sapiens, UniProt Q6UVK1); assay: FACS reactivity of C21 with established and patient-derived melanoma cell lines; assay type: binding; settings: established or patient-derived lines containing BRAF^V600E or BRAF^WT
T1 construct: Representative FACS analysis of CSPG4 expression by melanoma cell lines using CSPG4-specific C21 and PE-conjugated anti-human IgG; endogenous in cells; host or cells: established (1520, 836, Colo38, M21, MEL526, MV3, SK-MEL-28, SK-MEL-37, WM1158) and patient-derived (Mel-JR, Mel-KD, pre/post vemurafenib) human melanoma cell lines
T1 sequence (Q6UVK1 30-2322): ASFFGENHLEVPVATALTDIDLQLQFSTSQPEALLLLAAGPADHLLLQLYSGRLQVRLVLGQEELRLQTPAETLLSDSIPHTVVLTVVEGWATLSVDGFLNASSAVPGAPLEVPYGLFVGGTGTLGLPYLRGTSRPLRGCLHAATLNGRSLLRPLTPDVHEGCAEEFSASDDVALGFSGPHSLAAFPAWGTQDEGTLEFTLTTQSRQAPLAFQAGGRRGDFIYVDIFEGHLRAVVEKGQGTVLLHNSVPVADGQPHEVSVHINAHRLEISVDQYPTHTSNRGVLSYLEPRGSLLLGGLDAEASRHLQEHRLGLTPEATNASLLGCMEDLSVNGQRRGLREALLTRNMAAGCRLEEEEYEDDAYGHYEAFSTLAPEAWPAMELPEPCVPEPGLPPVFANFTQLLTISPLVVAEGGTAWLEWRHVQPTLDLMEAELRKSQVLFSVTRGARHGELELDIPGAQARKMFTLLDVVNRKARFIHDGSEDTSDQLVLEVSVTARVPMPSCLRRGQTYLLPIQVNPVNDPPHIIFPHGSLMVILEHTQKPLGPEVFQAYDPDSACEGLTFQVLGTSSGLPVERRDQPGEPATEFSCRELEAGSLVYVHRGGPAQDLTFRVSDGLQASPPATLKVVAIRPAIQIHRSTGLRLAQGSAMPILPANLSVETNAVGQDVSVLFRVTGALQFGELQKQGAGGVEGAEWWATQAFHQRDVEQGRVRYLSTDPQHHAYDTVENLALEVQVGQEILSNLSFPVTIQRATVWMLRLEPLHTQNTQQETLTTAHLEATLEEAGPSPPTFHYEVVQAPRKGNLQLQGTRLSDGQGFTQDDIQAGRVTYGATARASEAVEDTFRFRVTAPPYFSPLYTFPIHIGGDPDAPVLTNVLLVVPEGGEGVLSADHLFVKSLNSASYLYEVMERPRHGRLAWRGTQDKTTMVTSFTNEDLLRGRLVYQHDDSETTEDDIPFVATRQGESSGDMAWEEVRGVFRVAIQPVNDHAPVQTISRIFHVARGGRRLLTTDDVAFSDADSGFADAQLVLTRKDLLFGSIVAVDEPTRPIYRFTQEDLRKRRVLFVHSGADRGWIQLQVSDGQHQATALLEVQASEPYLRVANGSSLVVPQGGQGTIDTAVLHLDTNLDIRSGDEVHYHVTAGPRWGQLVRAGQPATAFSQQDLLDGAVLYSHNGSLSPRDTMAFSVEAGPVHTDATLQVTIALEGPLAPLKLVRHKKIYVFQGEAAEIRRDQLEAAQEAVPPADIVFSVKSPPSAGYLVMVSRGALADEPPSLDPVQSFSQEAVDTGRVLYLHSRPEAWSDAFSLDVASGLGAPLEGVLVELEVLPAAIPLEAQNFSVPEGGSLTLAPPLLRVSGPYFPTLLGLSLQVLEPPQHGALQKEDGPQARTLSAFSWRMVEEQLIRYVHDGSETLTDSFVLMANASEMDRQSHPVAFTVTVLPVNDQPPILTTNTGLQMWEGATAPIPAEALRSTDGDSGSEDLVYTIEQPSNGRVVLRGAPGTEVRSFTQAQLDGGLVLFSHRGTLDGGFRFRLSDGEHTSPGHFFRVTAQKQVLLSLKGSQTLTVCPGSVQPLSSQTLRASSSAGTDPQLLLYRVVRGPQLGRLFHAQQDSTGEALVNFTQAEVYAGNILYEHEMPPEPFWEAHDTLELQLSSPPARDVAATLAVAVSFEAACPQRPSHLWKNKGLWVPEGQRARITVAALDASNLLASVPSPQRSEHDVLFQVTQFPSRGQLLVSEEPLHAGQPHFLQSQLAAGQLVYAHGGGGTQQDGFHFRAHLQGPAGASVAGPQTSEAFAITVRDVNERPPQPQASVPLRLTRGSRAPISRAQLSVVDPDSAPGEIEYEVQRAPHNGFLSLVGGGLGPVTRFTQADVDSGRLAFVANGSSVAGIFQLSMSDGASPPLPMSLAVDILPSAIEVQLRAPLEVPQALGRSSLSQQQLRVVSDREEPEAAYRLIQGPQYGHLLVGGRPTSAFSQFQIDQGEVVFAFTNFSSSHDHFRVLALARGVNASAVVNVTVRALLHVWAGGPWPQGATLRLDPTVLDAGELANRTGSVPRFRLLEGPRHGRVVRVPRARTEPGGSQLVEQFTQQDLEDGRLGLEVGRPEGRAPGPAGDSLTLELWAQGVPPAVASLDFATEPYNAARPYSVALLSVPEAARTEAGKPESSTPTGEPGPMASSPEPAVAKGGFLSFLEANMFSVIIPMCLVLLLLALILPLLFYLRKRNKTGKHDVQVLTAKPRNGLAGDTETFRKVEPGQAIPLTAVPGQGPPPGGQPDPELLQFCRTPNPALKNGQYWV
Text: FIG. 5A to 5B. […] (FIG. 5A) Representative FACS analysis of CSPG4 expression by melanoma cell lines using CSPG4-specific C21 and PE-conjugated anti-human IgG. 119 was used as an isotype control. (FIG. 5B) A panel of melanoma cell lines bound by C21. *Percentage of CSPG4^+ cells. MFI: mean fluorescence intensity. The top section (1520, 836, Colo38, M21, MEL526, MV3, KS-MEL-28, SK-MEL-37, and WM1158) are established melanoma cell lines; The bottom section (MeI-JR(pre), MEL-JR(post), Mel-KD(pre), and Mel-KD(post)) are patient-derived human melanoma cell lines; pre: before vemurafenib (PLX4032) treatment, post: after vemurafenib (PLX4032) treatment.
A fully human mAb, scFc-FcC21 was produced by combining the HMW-MAA (CSPG4)-specific single chain of variable regions of heavy and light chains (scFv) to a Fc portion of IgG1 at the DNA level.

[4] = tested on: BRAF^V600E and BRAF^WT melanoma cell; assay: MTT growth inhibition of melanoma cell lines by C21; assay type: cell-based, human; settings: BRAF^V600E and BRAF^WT cells, 3, 5 days
Procedure: FIG. 7. […] The indicated cells were seeded in triplicate in 96-well plates (2.5×10^3/well) and treated for 3, 5 days with C21 and 119 in RPMI 1640/1% FCS. Living cells were detected using MTT assays. The results are expressed as percent inhibition of cell growth, with untreated cells representing 100%. Mean values±SD were calculated from two independent experiments.

[5] = tested on: human melanoma BRAF(V600E)/CSPG4^+ xenografts; assay: Survival of mice bearing M21 xenografts, vemurafenib and C21; assay type: in vivo; settings: M21 xenograft; vemurafenib 25 mg/kg orally twice a day for 13 days; C21 1 mg/mouse i.v. twice a week for 2 weeks; vs vemurafenib alone or vemurafenib+119
Procedure: FIG. 11. Improved response duration for vemurafenib in vivo. Human melanoma M21^BRAF(V600E)/CSPG4+ cells (2×10^6/mouse) were injected subcutaneously (s.c.) into 20 mice (day 0). By day 7, tumors were measurable, and mice were divided into four groups (5 mice/group) using a stratified randomization strategy. Mice received either vemurafenib, vemurafenib+C21, vemurafenib+119, or were untreated. Vemurafenib was delivered orally (25 mg/kg) twice a day for 13 days, while C21 or 119 were injected i.v. (1 mg/mouse) twice a week for 2 weeks. All mice were monitored for survival.

melanoma cells = assay: Prevention/delay of acquired resistance of melanoma cells to vemurafenib in vitro; assay type: cell-based, human
Procedure: FIG. 13. Prevention/delay of acquired resistance of melanoma cells to vemurafenib. Melanoma cells were seeded in 6-well plates (2.5×10^4 cells/well) containing 2 ml/well RPMI 1640/10% FCS. […] Cells received fresh growth medium every 4 days containing the appropriate treatment concentrations, for 28 days. Cells in randomly selected fields were photographed at different timepoints using a Zeiss Inverted Fluorescence Microscope
In addition, the results presented in FIG. 13 evidences that treatment with C21 delayed resistance to vemurafenib up to 28 days in vitro, at which point the rate of cell growth was unaffected by the presence or absence of vemurafenib (10 μM) in the absence of C21.

EGFR and PDGFRα = assay: Activation of EGFR and PDGFRα in melanoma cells after C21; assay type: cell-based, human; settings: acquired resistance to BRAF inhibitor

## CCCS(=O)(=O)Nc1ccc(F)c(C(=O)c2c[nH]c3ncc(-c4ccc(Cl)cc4)cc23)c1F [vemurafenib, Vemurafenib]
[1]; BRAF^WT MV3 cells, vemurafenib 500 nM
  cell growth: did not affect
V600E mutated BRAF; 32 BRAF mutated advanced melanoma patients, phase II study (Flaherty et al 2010)
  response rate: 70%
V600E mutated BRAF; Phase I clinical trials, advanced melanoma patients with the V600E BRAF mutation
  tumor regression and overall survival: effective in promoting tumor regression and increasing overall survival
V600E mutated BRAF; melanoma patients treated with BRAF selective inhibitor
  median duration of response: ~8 months

B1: C21: fully human mAb: HMW-MAA (CSPG4)-specific scFv combined to a Fc portion of IgG1; SEQ ID NOs: 3 and 4 (antibody, listed as Homo sapiens, V domains shown)
VH: QVQLVQSGAEVKKPGSSVKVSCKASGGTFSSYAISWVRQAPGQGLEWMGGIIPIFGTANYAQKFQGRVTITADESTSTAYMELSSLRSDDTAVYYCARALDPITFDSWGQGTLVTVSR
VL: SELTQDPAVSVALGQTVRITCQGDSLRSYYASWYQQKPGQAPVLVIYGKNNRPSGIPDRFSGSSSGNTASLTITGAQAEDEADYYCNSRDSSGNHVVFGGGTKLTVLGRS
[2]; Cerebellum
  IHC Result: negative
[2]; Cerebrum
  IHC Result: negative
[2]; Colon
  IHC Result: negative
[2]; Esophagus
  IHC Result: negative
[2]; FIG. 6, Table 2
  recognition of a panel of normal human organ tissues: not a panel of normal human organ tissues
[2]; Heart
  IHC Result: negative
[2]; Kidney
  IHC Result: negative
[2]; Liver
  IHC Result: negative
[2]; Lung
  IHC Result: negative
[2]; Lymph node
  IHC Result: negative
[2]; Ovary
  IHC Result: negative
[2]; Pancreas
  IHC Result: negative
[2]; Peripheral nerve
  IHC Result: negative
[2]; Pituitary gland
  IHC Result: negative
[2]; Placenta
  IHC Result: negative
[2]; Prostate
  IHC Result: negative
[2]; Salivary gland
  IHC Result: negative
[2]; Skeletal muscle
  IHC Result: negative
[2]; Skin
  IHC Result: negative
[2]; Small intestine
  IHC Result: negative
[2]; Smooth muscle
  IHC Result: negative
[2]; Spinal cord
  IHC Result: negative
[2]; Spleen
  IHC Result: negative
[2]; Stomach
  IHC Result: negative
[2]; Testis
  IHC Result: negative
[2]; Thymus
  IHC Result: negative
[2]; Thyroid gland
  IHC Result: negative
[2]; Ureter
  IHC Result: negative
[2]; Uterine cervix
  IHC Result: negative
[3]
  IHC staining of melanocytic lesions: homogeneous cytoplasmic and cytoplasmic membrane staining
CSPG4
  reactivity with human melanoma cell lines: Broad reactivity
CSPG4; listed as scFv-FcC21 (C21)
  reactivity with human melanoma cell lines: able to recognize
[4]
  inhibition of melanoma cell growth in vitro: Growth inhibition; also recorded: inhibited
[1]; 1520 cells negative for CSPG4, C21 0.1 mg/mL
  cell growth: did not affect
[5]
  survival of mice: prolonging the survival
Melanoma cells; C21 0.1 mg/mL with vemurafenib increasing 500 to 10,000 nM
  delay of resistance to vemurafenib in vitro: up to 28 days
Melanoma cells; melanoma cell line 1520, BRAF^V600E positive, CSPG4 negative
  onset of acquired resistance to vemurafenib: did not delay
EGFR and PDGFRα
  activation of EGFR and PDGFRα: down-regulating activation
